Results as given in paper PMC11077089, “Molecular basis of A. thaliana KEOPS complex in biosynthesizing tRNA t6A”.

T1: KAE1;BUD32;CGI121;PCC1 (Arabidopsis thaliana;Arabidopsis …, UniProt O49653;Q94K14;Q6NMZ4;Q8GWD7 1-353;1-226;1-172;1-96, |||)
T1 sequence 1: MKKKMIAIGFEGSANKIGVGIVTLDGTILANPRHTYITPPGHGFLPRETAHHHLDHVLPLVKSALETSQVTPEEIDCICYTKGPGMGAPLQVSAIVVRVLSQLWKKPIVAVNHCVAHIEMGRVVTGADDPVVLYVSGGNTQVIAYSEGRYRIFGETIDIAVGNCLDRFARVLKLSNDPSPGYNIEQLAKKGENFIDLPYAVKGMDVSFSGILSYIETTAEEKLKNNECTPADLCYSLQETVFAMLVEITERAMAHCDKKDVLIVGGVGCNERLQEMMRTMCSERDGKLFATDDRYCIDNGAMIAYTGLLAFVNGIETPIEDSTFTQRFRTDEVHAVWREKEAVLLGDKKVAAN
T1 sequence 2: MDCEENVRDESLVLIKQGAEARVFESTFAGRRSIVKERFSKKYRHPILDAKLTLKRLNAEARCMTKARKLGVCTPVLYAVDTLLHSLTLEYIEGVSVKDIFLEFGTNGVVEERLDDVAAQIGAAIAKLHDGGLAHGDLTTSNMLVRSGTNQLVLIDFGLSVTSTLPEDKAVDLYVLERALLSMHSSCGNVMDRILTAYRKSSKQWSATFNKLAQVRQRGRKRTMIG
T1 sequence 3: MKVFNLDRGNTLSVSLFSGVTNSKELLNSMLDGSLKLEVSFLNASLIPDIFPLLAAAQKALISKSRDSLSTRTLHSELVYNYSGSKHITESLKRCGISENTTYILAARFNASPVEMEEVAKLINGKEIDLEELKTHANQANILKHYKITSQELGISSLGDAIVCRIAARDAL
T1 sequence 4: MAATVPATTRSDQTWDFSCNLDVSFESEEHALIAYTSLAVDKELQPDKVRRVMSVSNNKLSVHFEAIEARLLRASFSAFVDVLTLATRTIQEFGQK

B1: tRNAIleUAU (structured_RNA)
RNA: GCUCCCGUAGCUCAGUUGGUUAGAGCGUUGGUCUUAUGAGCCGAAGGUCGCGGGUUCGAGCCCCGCCGGAAGCACCA
B2: tRNASerGCU (structured_RNA)
RNA: GUCGCUUUGGCCGAGUGGUUAAGGCGUGUUCCUGCUAAGUACAUGGGGUUUCCCCGCGAGAGUUCGAAUCUGUCAGGCGACGCCA
B3: tRNAIleAAU (structured_RNA)
RNA: GGCCUAUUAGCUCAGUUGGUUAGAGCGUCGUGCUAAUAACGCGAAGGUCACAGGUUCGAUCCCUGUAUAGGCCACCA
B4: tRNAAsnGUU (structured_RNA)
RNA: GCUGGAAUAGCUCAGUAGGUUUAGAGCGUGUGGCUGUUAACCUCAAGGUCGGAGGUUCGACCCCUCCUUUCAGCGCCA
B5: tRNAThrCGU (structured_RNA)
RNA: GCCUCCGUAGCAUAGUGGUAUUGCGUUCGCUUCGUAAGCGAAAGGUCGUGAGUUCGAUCCUCACCGUAGGCUCCA
B6: tRNALysUUU (structured_RNA)
RNA: GCCGUCUUAGCUCAGCGGUAGAGCGCGUGGCUUUUAACCACGUGGCCGUGGGUUCGAUCCCCACAGACGGCGCCA
B7: tRNAArgUCU (structured_RNA)
RNA: GCGCCCGUGGCCUAAUGGAUAAGGCGUUUGACUUCUAAUCAAACGAUUGUGGGUUCGAGUCCCACCGGGCGUGCCA

The binders below were run against T1, KAE1;BUD32;CGI121;PCC1 (assay: EMSA; 20 uM each; MST: 20 mM PBS pH 7.5, 300 mM NaCl, 0.05% Tween 20, 25 C, 50 nM RNA; EMSA: 20 mM Tris-HCl pH 7.5, 300 mM NaCl, 5 mM b-mercaptoethanol, 20% glycerol, agarose gel in Tris-glycine pH 8.0 (8.5 for FAM-RNA), 4 C). Settings: protein: recombinant;recombinant;recombinant;recombinant; tags: none (6His on partner PCC1);none (6His on partner CGI121);6His (C-term);6His (C-term); chain copies: 2;2;2;2; tRNA cloverleaf.

Binding result, binds:
B1
B2
B3
B4
B5
B6
B7
